The subject of series [1] is HeLa Kyoto. As to the kind of experiment: melting temperature (median over replicates), in situ; higher = more thermally stable.
The subject of series [2] is HeLa Kyoto. The series can be described thus: solubility in G1/S (NP-40 vs SDS abundance) (log2 ratio); higher = more soluble. The following applies: cell cycle stage: G1/S.
Series [3] deals with HeLa Kyoto. As to the kind of experiment: thermal stability score vs G1/S (z-score of summed log2 fold changes over temperatures); higher = more thermally stable than in G1/S.
Series [4] deals with HeLa Kyoto. The series can be described thus: solubility change mitosis vs G1/S (difference of NP-40 vs SDS log2 ratios) (log2 ratio difference); higher = more soluble in mitosis.
[5] abbreviates: cell cycle stage: early G1 (4.5 h after nocodazole release).
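Throughout, for melting temperature (median over replicates), in situ: HeLa Kyoto cells synchronized by double thymidine or nocodazole block, proteins quantified by TMT10plex mass spectrometry, three independent biological replicates.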
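Throughout, for solubility change mitosis vs G1/S (difference of NP-40 vs SDS log2 ratios): synchronized HeLa Kyoto cells (double thymidine block for G1/S, nocodazole release for mitosis), protein amounts in NP-40 versus SDS lysates quantified by mass spectrometry, three biological replicates.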
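Throughout, for solubility in G1/S (NP-40 vs SDS abundance): HeLa Kyoto cells arrested at G1/S by double thymidine block, proteins quantified by TMT10plex mass spectrometry in mild NP-40 versus SDS extracts, three biological replicates.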
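Throughout, for thermal stability score vs G1/S (z-score of summed log2 fold changes over temperatures): synchronized HeLa Kyoto cells, proteins quantified by TMT10plex mass spectrometry, three biological replicates, mitosis taken 0.5 h after nocodazole release, G1/S directly after double thymidine block.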

SORCS2, sequence (chain, as listed by the source): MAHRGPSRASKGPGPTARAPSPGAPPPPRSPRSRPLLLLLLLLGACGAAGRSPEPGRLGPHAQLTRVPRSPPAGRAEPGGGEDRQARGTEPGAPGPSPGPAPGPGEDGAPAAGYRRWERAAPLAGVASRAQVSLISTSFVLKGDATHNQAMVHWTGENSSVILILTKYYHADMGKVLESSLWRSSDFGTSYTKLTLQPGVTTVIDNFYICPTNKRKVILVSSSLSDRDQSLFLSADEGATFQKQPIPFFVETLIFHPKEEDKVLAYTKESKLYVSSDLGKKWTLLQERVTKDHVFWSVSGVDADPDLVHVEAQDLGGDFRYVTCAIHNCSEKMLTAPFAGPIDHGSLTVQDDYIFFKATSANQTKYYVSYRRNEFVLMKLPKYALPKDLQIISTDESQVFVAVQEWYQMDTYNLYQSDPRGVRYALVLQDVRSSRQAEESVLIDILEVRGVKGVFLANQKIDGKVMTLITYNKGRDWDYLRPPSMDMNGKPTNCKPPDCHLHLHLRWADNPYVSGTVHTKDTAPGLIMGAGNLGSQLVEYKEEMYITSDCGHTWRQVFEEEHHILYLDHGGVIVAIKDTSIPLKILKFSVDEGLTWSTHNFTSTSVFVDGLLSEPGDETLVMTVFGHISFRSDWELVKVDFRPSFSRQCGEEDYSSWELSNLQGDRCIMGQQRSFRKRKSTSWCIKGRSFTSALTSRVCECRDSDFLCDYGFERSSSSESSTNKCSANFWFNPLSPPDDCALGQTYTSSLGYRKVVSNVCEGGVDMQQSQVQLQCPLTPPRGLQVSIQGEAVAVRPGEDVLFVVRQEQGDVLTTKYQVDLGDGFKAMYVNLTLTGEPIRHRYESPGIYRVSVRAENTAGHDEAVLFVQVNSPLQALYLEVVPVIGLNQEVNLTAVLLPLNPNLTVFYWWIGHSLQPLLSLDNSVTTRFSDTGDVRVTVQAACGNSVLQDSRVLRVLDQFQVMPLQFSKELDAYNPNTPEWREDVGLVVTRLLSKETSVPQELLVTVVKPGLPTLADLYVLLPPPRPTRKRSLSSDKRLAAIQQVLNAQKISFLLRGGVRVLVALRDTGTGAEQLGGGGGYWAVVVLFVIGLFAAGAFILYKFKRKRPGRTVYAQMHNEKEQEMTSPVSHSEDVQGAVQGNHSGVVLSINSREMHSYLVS

Consider “MGRSRSRSSSRSKHTKSSKHNKKRSRSRSRSRDKERVRKRSKSRESKRNRRRESRSRSRSTNTAVSRRERDRERASSPPDRIDIFGRTVSKRSSLDEKQKREEEEKKAEFERQRKIRQQEIEEKLIEEETARRVEELVAKRVEEELEKRKDEIEREVLRRVEEAKRIMEKQLLEELERQRQAELAAQKAREEEERAKREELERILEENNRKIAEAQAKLAEEQLRIVEEQRKIHEERMKLEQERQRQQKEEQKIILGKGKSRPKLSFSLKTQD [ARGLU1]”, for which the melting temperature was 51 °C with HeLa Kyoto [1] (cell cycle stage: G1/S) and 50.4 °C in the series with HeLa Kyoto [1] (cell cycle stage: mitosis). The “solubility in G1/S (log2)” value in the series with HeLa Kyoto [2] was -1.03. Further, the thermal stability score with HeLa Kyoto [3] (setting [5]) is -5.79; in the series on HeLa Kyoto [3] (cell cycle stage: mitosis) it was -4.86. Also, the “solubility change mitosis (log2)” value in the series with HeLa Kyoto [4] was 0.866.

For “MPLPVALQTRLAKRGILKHLEPEPEEEIIAEDYDDDPVDYEATRLEGLPPSWYKVFDPSCGLPYYWNADTDLVSWLSPHDPNSVVTKSAKKLRSSNADAEEKLDRSHDKSDRGHDKSDRSHEKLDRGHDKSDRGHDKSDRDRERGYDKVDRERERDRERDRDRGYDKADREEGKERRHHRREELAPYPKSKKAVSRKDEELDPMDPSSYSDAPRGTWSTGLPKRNEAKTGADTTAAGPLFQQRPYPSPGAVLRANAEASRTKQQD [PQBP1]”, the melting temperature was 58.2 °C in the series with HeLa Kyoto [1] (cell cycle stage: G1/S) and 54.6 °C with HeLa Kyoto [1] (cell cycle stage: mitosis). The “solubility in G1/S (log2)” value in the series with HeLa Kyoto [2] stood at 0.0148. The values for the thermal stability score in the series with HeLa Kyoto [3] (setting [5]) and in the series on HeLa Kyoto [3] (cell cycle stage: mitosis) were -3.93 and -4.26, respectively. In addition, in the series with HeLa Kyoto [4], the “solubility change mitosis (log2)” value stood at 0.599.

In the case of “MASRCWRWWGWSAWPRTRLPPAGSTPSFCHHFSTQEKTPQICVVGSGPAGFYTAQHLLKHPQAHVDIYEKQPVPFGLVRFGVAPDHPEVKNVINTFTQTAHSGRCAFWGNVEVGRDVTVPELREAYHAVVLSYGAEDHRALEIPGEELPGVCSARAFVGWYNGLPENQELEPDLSCDTAVILGQGNVALDVARILLTPPEHLERTDITKAALGVLRQSRVKTVWLVGRRGPLQVAFTIKELREMIQLPGARPILDPVDFLGLQDKIKEVPRPRKRLTELLLRTATEKPGPAEAARQASASRAWGLRFFRSPQQVLPSPDGRRAAGVRLAVTRLEGVDEATRAVPTGDMEDLPCGLVLSSIGYKSRPVDPSVPFDSKLGVIPNVEGRVMDVPGLYCSGWVKRGPTGVIATTMTDSFLTGQMLLQDLKAGLLPSGPRPGYAAIQALLSSRGVRPVSFSDWEKLDAEEVARGQGTGKPREKLVDPQEMLRLLGH [FDXR]”, the melting temperature in the series on HeLa Kyoto [1] (cell cycle stage: G1/S) was determined as 51.7 °C; in the series with HeLa Kyoto [1] (cell cycle stage: mitosis), 51.8 °C. In addition, in the series on HeLa Kyoto [2], the “solubility in G1/S (log2)” value came to 0.349. For the same substance, the thermal stability score in the series on HeLa Kyoto [3] (setting [5]) was determined as 0.0282; with HeLa Kyoto [3] (cell cycle stage: mitosis), 0.706. The “solubility change mitosis (log2)” value in the series with HeLa Kyoto [4] is -0.0461.

In the case of “MAKTYDYLFKLLLIGDSGVGKTCLLFRFSEDAFNTTFISTIGIDFKIRTIELDGKKIKLQIWDTAGQERFRTITTAYYRGAMGIMLVYDITNEKSFDNIKNWIRNIEEHASSDVERMILGNKCDMNDKRQVSKERGEKLAIDYGIKFLETSAKSSANVEEAFFTLARDIMTKLNRKMNDSNSAGAGGPVKITENRSKKTSFFRCSLL [RAB8B]”, the melting temperature was found to be 55.9 °C in the series on HeLa Kyoto [1] (cell cycle stage: G1/S) and 54 °C in the series on HeLa Kyoto [1] (cell cycle stage: mitosis). Besides, the “solubility in G1/S (log2)” value with HeLa Kyoto [2] is -0.16. For the same substance, the thermal stability score worked out at 1.55 in the series with HeLa Kyoto [3] (setting [5]) and 0.563 in the series on HeLa Kyoto [3] (cell cycle stage: mitosis). Further, the “solubility change mitosis (log2)” value in the series on HeLa Kyoto [4] is -0.0727.

As for TTN, the melting temperature in the series on HeLa Kyoto [1] (cell cycle stage: G1/S) turned out to be 50.4 °C; in the series on HeLa Kyoto [1] (cell cycle stage: mitosis), 51.5 °C. For the same substance, in the series with HeLa Kyoto [2], the “solubility in G1/S (log2)” value is -0.476. The figures for the thermal stability score with HeLa Kyoto [3] (setting [5]) and in the series with HeLa Kyoto [3] (cell cycle stage: mitosis) were 2.14 and 1.45, respectively. The “solubility change mitosis (log2)” value with HeLa Kyoto [4] amounted to 0.167.

On to “MNIMDFNVKKLAADAGTFLSRAVQFTEEKLGQAEKTELDAHLENLLSKAECTKIWTEKIMKQTEVLLQPNPNARIEEFVYEKLDRKAPSRINNPELLGQYMIDAGTEFGPGTAYGNALIKCGETQKRIGTADRELIQTSALNFLTPLRNFIEGDYKTIAKERKLLQNKRLDLDAAKTRLKKAKAAETRNSSEQELRITQSEFDRQAEITRLLLEGISSTHAHHLRCLNDFVEAQMTYYAQCYQYMLDLQKQLGSFPSNYLSNNNQTSVTPVPSVLPNAIGSSAMASTSGLVITSPSNLSDLKECSGSRKARVLYDYDAANSTELSLLADEVITVFSVVGMDSDWLMGERGNQKGKVPITYLELLN [SH3GLB1]”, for which the melting temperature in the series with HeLa Kyoto [1] (cell cycle stage: G1/S) worked out at 48.1 °C; with HeLa Kyoto [1] (cell cycle stage: mitosis), 48.7 °C. The “solubility in G1/S (log2)” value in the series on HeLa Kyoto [2] was found to be 0.531. For the same substance, the thermal stability score in the series on HeLa Kyoto [3] (setting [5]) turned out to be 1.13; in the series with HeLa Kyoto [3] (cell cycle stage: mitosis) it was 2.44. In the series with HeLa Kyoto [4], the “solubility change mitosis (log2)” value was determined as 0.00172.

As for “MAAMASLGALALLLLSSLSRCSAEACLEPQITPSYYTTSDAVISTETVFIVEISLTCKNRVQNMALYADVGGKQFPVTRGQDVGRYQVSWSLDHKSAHAGTYEVRFFDEESYSLLRKAQRNNEDISIIPPLFTVSVDHRGTWNGPWVSTEVLAAAIGLVIYYLAFSAKSHIQA [SSR4]”, the figures for the melting temperature with HeLa Kyoto [1] (cell cycle stage: G1/S) and with HeLa Kyoto [1] (cell cycle stage: mitosis) were 55.5 °C and 54.9 °C, respectively. Moreover, the “solubility in G1/S (log2)” value with HeLa Kyoto [2] amounted to 0.0435. The results for the thermal stability score in the series on HeLa Kyoto [3] (setting [5]) and in the series on HeLa Kyoto [3] (cell cycle stage: mitosis) were 1.62 and -0.139, respectively. The “solubility change mitosis (log2)” value in the series on HeLa Kyoto [4] was determined as 0.0331.

For the substance SORCS2, the melting temperature is 53.7 °C in the series with HeLa Kyoto [1] (cell cycle stage: G1/S) and 50.4 °C in the series with HeLa Kyoto [1] (cell cycle stage: mitosis). The “solubility in G1/S (log2)” value in the series with HeLa Kyoto [2] came to 0.0123. Besides, the thermal stability score in the series on HeLa Kyoto [3] (setting [5]) was -2.23; with HeLa Kyoto [3] (cell cycle stage: mitosis), -3.21. The “solubility change mitosis (log2)” value with HeLa Kyoto [4] is -0.162.

For “MSGGKYVDSEGHLYTVPIREQGNIYKPNNKAMADELSEKQVYDAHTKEIDLVNRDPKHLNDDVVKIDFEDVIAEPEGTHSFDGIWKASFTTFTVTKYWFYRLLSALFGIPMALIWGIYFAILSFLHIWAVVPCIKSFLIEIQCISRVYSIYVHTVCDPLFEAVGKIFSNVRINLQKEI [CAV1]”, the melting temperature was determined as 57.3 °C with HeLa Kyoto [1] (cell cycle stage: G1/S) and 54.6 °C in the series with HeLa Kyoto [1] (cell cycle stage: mitosis). Besides, the “solubility in G1/S (log2)” value with HeLa Kyoto [2] was -0.297. For the same substance, the thermal stability score in the series with HeLa Kyoto [3] (setting [5]) was -2.45; in the series with HeLa Kyoto [3] (cell cycle stage: mitosis) it was -3.05. In addition, the “solubility change mitosis (log2)” value in the series on HeLa Kyoto [4] was -0.0544.

The record behind these values is the supplement of paper PMC5998384.
